Measured values as given in patent US20170281792A1 (Genentech, published 2017).

Key:
[1] = target: T1, E. coli derived recombinant human mesothelin (human, UniProt Q13421 296-580); assay: Biacore (column 'Kd (nM) Biacore'); antigen preparation not given, the filing's Biacore assays use E. coli derived human mesothelin
T1 construct: not shown: N-terminal unizyme His (HQ)-tag

[2] = target: T2, gD epitope-tagged mouse mesothelin expressed on cells (construct #385) (mouse, UniProt Q61468 298-582); assay: FACS on transiently transfected 293 cells
T2 sequence: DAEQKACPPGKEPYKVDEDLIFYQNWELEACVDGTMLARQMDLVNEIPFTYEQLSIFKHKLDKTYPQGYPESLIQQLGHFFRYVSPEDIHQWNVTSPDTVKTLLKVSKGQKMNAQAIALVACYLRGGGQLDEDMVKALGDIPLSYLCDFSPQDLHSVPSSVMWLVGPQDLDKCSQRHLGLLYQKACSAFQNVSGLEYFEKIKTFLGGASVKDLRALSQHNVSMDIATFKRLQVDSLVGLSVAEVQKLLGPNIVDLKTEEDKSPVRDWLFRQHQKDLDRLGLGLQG

[3] = target: T3, gD epitope-tagged cynomolgus monkey mesothelin expressed on cells (construct #383) (cynomolgus monkey); assay: FACS on transiently transfected 293 cells
T3 construct: also called cyno mesothelin
T3 chain: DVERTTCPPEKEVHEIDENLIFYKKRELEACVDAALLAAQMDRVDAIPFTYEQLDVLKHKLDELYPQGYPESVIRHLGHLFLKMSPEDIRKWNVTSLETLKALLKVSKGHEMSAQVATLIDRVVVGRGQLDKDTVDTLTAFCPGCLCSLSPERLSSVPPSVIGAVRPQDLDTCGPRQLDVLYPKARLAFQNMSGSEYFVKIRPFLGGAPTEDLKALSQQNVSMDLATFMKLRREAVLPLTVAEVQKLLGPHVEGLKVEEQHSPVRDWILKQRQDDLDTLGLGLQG

[4] = target: T4, human mesothelin on cells (endogenous on tumour cell lines and tissue, or stably expressed on A431 or HT1080 … (human, UniProt Q13421 296-580)); assay: Scatchard analysis (125I-labelled antibody) on HPAC cells, endogenous mesothelin
T4 construct: also called endogenous mesothelin; endogenous human mesothelin
T4 sequence (Q13421 other isoform, or with tags, fused parts or gaps): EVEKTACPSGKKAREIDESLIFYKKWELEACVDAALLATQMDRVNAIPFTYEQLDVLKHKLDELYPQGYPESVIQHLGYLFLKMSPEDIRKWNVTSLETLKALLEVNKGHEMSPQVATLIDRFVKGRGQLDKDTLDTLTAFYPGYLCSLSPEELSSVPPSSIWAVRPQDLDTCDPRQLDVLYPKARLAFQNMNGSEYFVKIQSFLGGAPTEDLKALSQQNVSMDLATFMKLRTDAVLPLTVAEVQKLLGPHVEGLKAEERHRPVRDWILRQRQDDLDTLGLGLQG
Procedure: (§1) The data was analyzed with non-linear regression curve fitting in the New Ligand program (Genentech, Inc., South San Francisco, Calif.) to estimate Kd values (Munson et al., Anal. Biochem., 107 220-239 (1980)).

[5] = target: T5, gD epitope-tagged human mesothelin expressed on cells (construct #387) (human, UniProt Q13421 296-580); assay: Scatchard, 125I-labelled antibody on stably transfected BJAB cells
T5 construct: also called gD-human mesothelin; gD-tagged human mesothelin
T5 sequence (Q13421 other isoform, or with tags, fused parts or gaps): as above
Procedure: as §1

[6] = target: T5, gD epitope-tagged human mesothelin …; assay: Scatchard, 125I-labelled antibody on stably transfected 293 cells
Procedure: as §1

[7] = target: T1, E. coli derived recombinant human …; assay: Biacore-2000, IgG over immobilised E. coli derived human mesothelin, 1:1 fit
Procedure: 7D9 variants were expressed as IgG by CHO transient transfection. IgG was purified with protein G affinity chromatography. The affinity of each 7D9 IgG variant for human mesothelin was determined by surface plasmon resonance using a BIACORE™-2000. BIACORE™ research grade CM5 chips were immobilized with approximately 110 RU of E. coli derived recombinant human mesothelin using the amine coupling kit from BIACORE™. […] Each sample was analyzed with 5-minute association and 3.5-minute dissociation. After each injection the chip was regenerated using 10 mM Glycine pH 1.7. Binding response was corrected by subtracting the RU from a flow cell with an irrelevant IgG immobilized at similar density. A 1:1 Languir model of simultaneous fitting of kₒₙ and koff was used for kinetics analysis.

[8] = target: T4, human mesothelin on cells (endogenous …); assay: Scatchard analysis (125I-labelled antibody) on HPAF-II cells, endogenous mesothelin
Procedure: as §1

[9] = target: T4, human mesothelin on cells (endogenous …); assay: Scatchard analysis (125I-labelled antibody) on AsPC1 cells, endogenous mesothelin
Procedure: as §1

[10] = target: T6, gD epitope-tagged rat mesothelin expressed on cells (rat, UniProt Q9ERA7 298-582); assay: immunoprecipitation from BJAB cells stably expressing gD-tagged rat mesothelin, Western blot with murine anti-gD
T6 sequence: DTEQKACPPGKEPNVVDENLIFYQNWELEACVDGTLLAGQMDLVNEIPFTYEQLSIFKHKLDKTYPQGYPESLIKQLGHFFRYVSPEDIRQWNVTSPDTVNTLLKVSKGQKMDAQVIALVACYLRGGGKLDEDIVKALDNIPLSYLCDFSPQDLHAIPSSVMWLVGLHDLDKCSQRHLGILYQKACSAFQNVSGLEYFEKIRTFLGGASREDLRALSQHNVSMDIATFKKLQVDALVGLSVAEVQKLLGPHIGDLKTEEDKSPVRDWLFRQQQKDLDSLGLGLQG

[11] = target: T4, human mesothelin on cells (endogenous …); assay: Scatchard analysis (125I-labelled antibody) on Capan2 cells, endogenous mesothelin
Procedure: as §1

[12] = target: T4, human mesothelin on cells (endogenous …); assay: Scatchard; range for endogenous mesothelin in four pancreatic and two ovarian cell lines
Procedure: as §1

[13] = target: T7, C-terminally his-tagged human mesothelin expressed in CHO cells (Mono S fractions A11, A12, B1, B5) (human, UniProt Q13421 296-580); assay: SPR: each Mono S fraction (A11, A12, B1, B5) flowed over a chip with prebound h7D9.v3
T7 construct: also called glycosylated mesothelin; not shown: C-terminal his tag
T7 sequence (Q13421 other isoform, or with tags, fused parts or gaps limits assumed): as the sequence (Q13421 other isoform, or with tags, fused parts or gaps) above
Excerpt: To determine whether h7D9.v3 binds to glycosylated mesothelin, C-terminally his-tagged human mesothelin was expressed in CHO cells, purified and further separated according to charge on a Mono S column into fractions with high (fraction A11), medium (A12), low (B1) and low-to-none (B5) glycosylation of mesothelin, as shown by Coomassie Blue staining on an SDS-PAGE gel. (FIG. 20, top left). […] (FIG. 20, right).

[14] = target: T4, human mesothelin on cells (endogenous …); assay: Scatchard analysis (125I-labelled antibody) on OvCar3x2.1 cells, endogenous mesothelin
Procedure: as §1

[15] = target: T3, gD epitope-tagged cynomolgus monkey …; assay: immunoprecipitation from BJAB cells stably expressing gD-tagged cyno mesothelin, Western blot with murine anti-gD
[16] = target: T4, human mesothelin on cells (endogenous …); assay: Scatchard analysis (125I-labelled antibody) on OvCar3 cells, endogenous mesothelin
Procedure: as §1

[17] = target: T2, gD epitope-tagged mouse mesothelin …; assay: FACS on stably transfected 293 cells
Procedure: Monoclonal antibodies were tested to determine if they cross-react with mesothelin from species other than human. […] Shaded residues are identical between at least two species. Unshaded residues differ between at least two of the four species. […] Anti-gD staining verified that mouse mesothelin was indeed expressed.

[18] = target: T5, gD epitope-tagged human mesothelin …; assay: Scatchard, 125I-labelled antibody on stably transfected HT1080 cells
Procedure: as §1

T1 sequence (Q13421 other isoform, or with tags, fused parts or gaps): as the sequence (Q13421 other isoform, or with tags, fused parts or gaps) above

Binder | Kd [1] [nM] | binding result [2] | binding result [3] | Kd [4] [nM] | Kd [5] [nM] | Kd [6] [nM] | Kd [7] [nM] | Kd [8] [nM] | Kd [9] [nM] | binding result [10] | Kd [11] [nM] | Kd [12] [nM] | Kd [13] [nM] | Kd [14] [nM] | binding result [15] | Kd [16] [nM] | binding result [17] | Kd [18] [nM]
mouse monoclonal antibody 7D9 (antibody, V domains shown, also called m7D9; mu7D9) VH: QVQLQQSGAELAKPGASVKMSCKASGYTFTTYWMHWVKQRPGQGLEWIGYIRPSTGYTEYNQKFKDKATLTADKSSSTAYMQLSSLTSEDSTVYYCARSRWLLDYWGQGTSLTVS VL: DIMMTQSPSSLAVSAGEKVTMSCKSSQSVLYSSNQKNYLAWFQQKPGQSPKLLIYWASTRESGVPDRFTGSGSGTDFTLTISSVQAEDLAVYFCHQYLSSYTFGGGTKVEIK | 0.23 | no binding (tested: 0.02 µg/ml) | no binding (tested: 0.02 µg/ml) |  |  |  |  |  |  |  |  |  |  |  |  |  |  | 
humanized monoclonal antibody 7D9.v3 (antibody, V domains shown, also called h7D9.v3; hu7D9.v3) VH: EVQLVESGGGLVQPGGSLRLSCAASGYTFTTYWMHWVRQAPGKGLEWVGYIRPSTGYTEYNQKFKDRFTISADTSKNTAYLQMNSLRAEDTAVYYCARSRWLLDYWGQGTLVTVS VL: DIQMTQSPSSLSASVGDRVTITCKSSQSVLYSSNQKNYLAWFQQKPGKAPKLLIYWASTRESGVPSRFSGSGSGTDFTLTISSLQPEDFATYFCHQYLSSYTFGQGTKVEIKR |  |  |  | 1 | 0.25 | 0.2 | 1.9 | 0.41 | 0.58 | no binding | 0.63 | 0.41 to 1 | 1.5 | 0.56 | no binding | 0.53 | no binding (tested: 10 µg/ml) | 0.97
